One substance from patent publication US6475781 can be followed below.

The target of assay [1] is human PDGF-B (c-sis) (human) (UniProt P01127). Description: cell-based or functional assay.
Assay [2] concerns the target wildtype murine PDGF A chain (murine) (UniProt P20033). Nature of the assay: cell-based or functional assay.

Sequence of human PDGF-B (c-sis) (human) (P01127 82-190 limits assumed): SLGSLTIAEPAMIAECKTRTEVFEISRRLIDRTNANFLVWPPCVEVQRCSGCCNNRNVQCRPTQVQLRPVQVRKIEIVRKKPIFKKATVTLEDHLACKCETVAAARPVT

As to “PDGF A dominant negative mutant 1308 (murine PDGF A chain with the third cysteine residue changed to serine) (from UniProt P20033 87-196) (ligand)”, the growth of PDGF-B (c-sis) transformed Balb/c 3T3 sublines in PPP-supplemented medium in assay [1] stood at 90 % inhibition. The substance further displayed a growth of PDGF-A transformed Balb/c 3T3 sublines in PPP-supplemented medium (% suppression) in assay [2] of 70.
